Like-named read-outs stand apart in the source and are kept apart here.
What was measured:
Sox2 HMG DBD WT [1] = biological target: T1, Sox2 HMG DBD WT (human, UniProt P48431 39-118); assay: EMSA
[2] = biological target: Oct4 DBD (POUS-linker-POUHD) (UniProt Q01860 133-296); assay: EMSA
Sox2 HMG DBD WT [3] = biological target: T1, Sox2 HMG DBD WT; assay: NMR
Sox2 HMG DBD WT [4] = biological target: T1, Sox2 HMG DBD WT; assay: NMR; remark: listed apart in the source
Sox2 HMG Y72A = Sox2 HMG Y72A (human, UniProt P48431 39-118, Y108A); assay: NMR
Chain of Sox2 HMG Y72A (P48431 39-118 Y108A): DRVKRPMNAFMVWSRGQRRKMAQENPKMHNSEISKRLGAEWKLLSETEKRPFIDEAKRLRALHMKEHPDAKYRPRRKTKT

Chain of Oct4 DBD (POUS-linker-POUHD) (Q01860 133-296): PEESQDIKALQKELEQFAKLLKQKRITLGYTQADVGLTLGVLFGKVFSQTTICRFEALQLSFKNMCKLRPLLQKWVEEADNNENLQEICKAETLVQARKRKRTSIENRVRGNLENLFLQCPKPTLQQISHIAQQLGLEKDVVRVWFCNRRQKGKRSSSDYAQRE
T1 sequence (P48431 39-118): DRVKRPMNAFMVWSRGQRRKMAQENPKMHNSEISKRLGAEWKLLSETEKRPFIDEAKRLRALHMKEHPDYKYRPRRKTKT

B1: DNA 62N (dsDNA)
DNA 1: TGGAGAATCCCGGTGCCGAGGCCGCTCAATTGGTCGTAGACAGCTCTAGCACCGCTTAAACGCACGTACGCGCTGTCCCCCGCGTTTTAACCGCCAAGGGGATTACTCCCTAGTCTCCAGGCACTTTTGCATTACAATGTATCGT
DNA 2: ACGATACATTGTAATGCAAAAGTGCCTGGAGACTAGGGAGTAATCCCCTTGGCGGTTAAAACGCGGGGGACAGCGCGTACGTGCGTTTAAGCGGTGCTAGAGCTGTCTACGACCAATTGAGCGGCCTCGGCACCGGGATTCTCCA
- Kd (Sox2 HMG DBD WT [1]): 2.3 ± 0.3 nM

B2: DNA 54RN (dsDNA)
DNA 1: TGGAGAATCCCGGTGCCGAGGCCGCTCAATTGGTCGTAGACAGCTCTAGCACCGCTTAAACGCACGTACGCGCTGTCCCCCGCGTTTTAACCGCCAAGGGGATTACTCCCTAGTCTCCAGGCCATTGTAATGCAAAAGCTATCGT
DNA 2: ACGATAGCTTTTGCATTACAATGGCCTGGAGACTAGGGAGTAATCCCCTTGGCGGTTAAAACGCGGGGGACAGCGCGTACGTGCGTTTAAGCGGTGCTAGAGCTGTCTACGACCAATTGAGCGGCCTCGGCACCGGGATTCTCCA
- Kd (Sox2 HMG DBD WT [1]): 3 ± 0.4 nM
- Kd [2]: 38 ± 4 nM

B3: DNA 27F (dsDNA)
DNA 1: TGGAGAATCCCGGTGCCGAGGCCGCTCAATTGGTCGTAGACAGCTCTAGCACCGCTTAAACGCACGTACGCGCTGTCCCCCGCGTTATTAGCATCCAAACAAAGACTCCCTAGTCTCCAGGCACGTGTGGTTACGAGGCTATCGT
DNA 2: ACGATAGCCTCGTAACCACACGTGCCTGGAGACTAGGGAGTCTTTGTTTGGATGCTAATAACGCGGGGGACAGCGCGTACGTGCGTTTAAGCGGTGCTAGAGCTGTCTACGACCAATTGAGCGGCCTCGGCACCGGGATTCTCCA
- binding result (Sox2 HMG DBD WT [3]): binds

B4: DNA 62F (dsDNA)
DNA 1: TGGAGAATCCCGGTGCCGAGGCCGCTCAATTGGTCGTAGACAGCTCTAGCACCGCTTAAACGCACGTACGCGCTGTCCCCCGCGTTTTAACCGCCAAGGGGATTACTCCCTAGTCTCCAGGATTAGCATCCAAACAAAGTATCGT
DNA 2: ACGATACTTTGTTTGGATGCTAATCCTGGAGACTAGGGAGTAATCCCCTTGGCGGTTAAAACGCGGGGGACAGCGCGTACGTGCGTTTAAGCGGTGCTAGAGCTGTCTACGACCAATTGAGCGGCCTCGGCACCGGGATTCTCCA
- Kd (Sox2 HMG DBD WT [1]): 2.1 ± 0.2 nM

B5: DNA 54RF (dsDNA)
DNA 1: TGGAGAATCCCGGTGCCGAGGCCGCTCAATTGGTCGTAGACAGCTCTAGCACCGCTTAAACGCACGTACGCGCTGTCCCCCGCGTTTTAACCGCCAAGGGGATTACTCCCTAGTCTCCAGGCCTTTGTTTGGATGCTAATATCGT
DNA 2: ACGATATTAGCATCCAAACAAAGGCCTGGAGACTAGGGAGTAATCCCCTTGGCGGTTAAAACGCGGGGGACAGCGCGTACGTGCGTTTAAGCGGTGCTAGAGCTGTCTACGACCAATTGAGCGGCCTCGGCACCGGGATTCTCCA
- Kd (Sox2 HMG DBD WT [1]): 1.1 ± 0.2 nM
- Kd [2]: 32 ± 3 nM

B6: DNA 2RN (dsDNA)
DNA 1: TGGAGAATCCCGGTGCCGAGGCCGCTCAATTGGTCGTAGACAGCTCTAGCACCGCTTAAACGCACGTACGCATTGTAATGCAAAATTTAACCGCCAAGGGGATTACTCCCTAGTCTCCAGGCACGTGTGGTTACGAGGCTATCGT
DNA 2: ACGATAGCCTCGTAACCACACGTGCCTGGAGACTAGGGAGTAATCCCCTTGGCGGTTAAATTTTGCATTACAATGCGTACGTGCGTTTAAGCGGTGCTAGAGCTGTCTACGACCAATTGAGCGGCCTCGGCACCGGGATTCTCCA
- Kd (Sox2 HMG DBD WT [1]): 3.7 ± 0.5 nM

B7: DNA 601* (dsDNA)
DNA 1: TGGAGAATCCCGGTGCCGAGGCCGCTCAATTGGTCGTAGACAGCTCTAGCACCGCTTAAACGCACGTACGCGCTGTCCCCCGCGTTTTAACCGCCAAGGGGATTACTCCCTAGTCTCCAGGCACGTGTGGTTACGAGGCTATCGT
DNA 2: ACGATAGCCTCGTAACCACACGTGCCTGGAGACTAGGGAGTAATCCCCTTGGCGGTTAAAACGCGGGGGACAGCGCGTACGTGCGTTTAAGCGGTGCTAGAGCTGTCTACGACCAATTGAGCGGCCTCGGCACCGGGATTCTCCA
- Kd (Sox2 HMG DBD WT [1]): 8 ± 0.7 nM
- Kd [2]: 160 ± 20 nM

B8: sDNAF (dsDNA)
DNA 1: GACTCTTTGTTTGGC
DNA 2: GCCAAACAAAGAGTC
- binding result (Sox2 HMG DBD WT [4]): binds
- binding result (Sox2 HMG Y72A): binds

From doi:10.1101/2022.01.18.476780
